Results reported in the supplement of paper PMC9170038.

System: MS2 coat protein
Test: apparent KD of MS2 coat protein; designed switch direction (-1 OFF switch, 1 ON switch): 1; higher = weaker reporter binding
Method in brief: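 RNA switches sharing common flanks were transcribed by stalled E. coli RNA polymerase on Illumina chips. A doubling series of SNAP-549-labelled MS2 coat protein, from 0.7 or 1.5 nM to 3 µM, was applied in Tris-HCl pH 7.5 buffer with KCl, MgCl2, BSA, DTT, tRNA and Tween-20. Each step lasted 0.8–1.5 h at the bottom of the series and 10–20 min at the top. Normalised cluster fluorescence was curve-fitted, giving apparent KD as the per-design median over clusters.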

[1] = Eterna round: R95, input ligand: FMN 200 uM
[2] = Eterna round: R95, input ligand: microRNA oligo, concentration not stated
[3] = Eterna round: R95, input ligand: none
[4] = input ligand: microRNA oligo, concentration not stated

Sequence	apparent KD of MS2 coat protein [1] [nM]	apparent KD of MS2 coat protein [2] [nM]	apparent KD of MS2 coat protein [3] [nM]	apparent KD of MS2 coat protein (input ligand: FMN 200 uM) [nM]	apparent KD of MS2 coat protein [4] [nM]	apparent KD of MS2 coat protein (input ligand: none) [nM]
AGUCCAGCCUGAGCUGGACAAAAGCAUGUACAUGAGGAUCACCCAUGUUCAUGUACUAGCUUUUUGCUCGUCUUGCC [salish99_208a_r3_108x] (puzzle: Sensor for hsa-mir-208a)	157	14.8	163			
AGUCCAGCCUGAGCUGGACAAAAGCGUGUACAUGAGGAUCACCCAUGUCAUGUACAAGCUUUUUGCUCGUCUUAAAA [Zipper 46 - 7] (puzzle: Sensor for hsa-mir-208a)	63.5	19.9	69.8			
AGUCCAGCCUGAGCUGGACAAAGGCAUGUACAUGAGGAUCACCCAUGUCAUGUACAAGCUUUUUGCUCGUCUUAAAA [Zipper 46 - 1] (puzzle: Sensor for hsa-mir-208a)	161	14.9	187			
AGUCCAGCCUGAGCUGGACAGAAGCAUGUACAUGAGGAUCACCCAUGUCAUGUACAAGCUUUUUGCUCGUCUUAAUA [Zipper 49 - 3] (puzzle: Sensor for hsa-mir-208a)	459	16.2	641			
AGUCCAGCGAAAGCUGGACAAAAGUAUGUACAUGAGGAUCACCCAUGUUCAUGUACAAGCUUUUUGCUCGUUUUAAA [JL mod - D95 - 19] (puzzle: Sensor for hsa-mir-208a)	814	48.1	928			
AGUCCAGGCUGACCUGGACAAAAGCAUGUACAUGAGGAUCACCCAUGUCAUGUACAAGCUUUUUGCUCGUCUUAAAA [Mat - hsa-mir-208a - Mod of JL - D16] (puzzle: Sensor for hsa-mir-208a)	701	14.3	637			
AGUGAACAUGAGGAUCACCCAUGUGAGAGGGAUGUAGGAUAUGUAAGGAAGUAAGAUGGAACAGAAGGACAAAGUG [JR_SS!_Sub067] (puzzle: Same State 1)	38.6	46.1	50.4			
AUAAAACAUGAGGAUCACCCAUGUCAACAAAGUCGAGGAUAUGGGCAAAUAAAAUAAGAACCAGAAGGCGAAUAUU [salish99_ss1_r3_037] (Eterna round: R96, puzzle: Same State 1)				43.8	262	261
AUAAAACAUGAGGAUCACCCAUGUCAACAAAGUCGAGGAUAUGGGCAAAUAAAAUAAGAACCAGAAGGCGAAUAUU [salish99_ss1_r3_037] (puzzle: Same State 1)	31	382	750			
AUAAAACAUGAGGAUCACCCAUGUCAACAAAGUCGAGGAUAUGGGCUAAUAAAAUAAGAACCAGAAGGCGAAUAAU [salish99_ss1_r3_027] (puzzle: Same State 1)	26.2	152	146			
AUAAAACAUGAGGAUCACCCAUGUCAACAAAGUCGAGGAUAUGUGCAAAUAAAAUAAGAACCAGAAGGCGAAUAAU [salish99_ss1_r3_049] (puzzle: Same State 1)	16.2	22.3	37.9			
AUAACACUGGCAGGAUAUGGGAAAGGAAGUGUACCAGAAGGGCCAGAACGGCGAUGGACAUGAGGAUCACCCAUGUCUUAGCCU [PowerStrip SSNG 1.4] (Eterna round: R96, puzzle: Same State NG 1)				12.7	11.4	13.9
AUAAGACAGGCAGGAUAUGGGCCUGACUCUGAUAUCAGAGUCUACACAUGAGGAUCACCCAUGUCCCAGAAGGGCCUGAAGAAG [Zavean] (Eterna round: R96, puzzle: Same State NG 2)				17.6	92.2	102
AUAAGGCAAGCUUUUUUCUCGUAGUAUAAACAUGAGGAUCACCCAUGUGCCUACCCUGGAUCUUUGGAUCGCAGAAA [Ravebiat] (puzzle: Sensor for hsa-mir-208a)	22.1	15.7	28.3			
AUAAGUUCGAUGCUCGUCUCUCCGUACUAACAUGAGGAUCACCCAUGUGAUCGGGCAGUAGCCCGAUCAGUAUGGCC [Bizain] (puzzle: Sensor for hsa-mir-208a)	90.7	68.3	114			
AUAAUAAUAAGUCAGGAUAUGUUGAUAAAGACAUGAGGAUCACCCAUGUGAAAUAAAAUAAUAAUACAGAAGGGACAAUAAUAAA [JMF's solution 3] (puzzle: Same State 2)	252	64	265			

Sequence	apparent KD of MS2 coat protein [1] [nM]	apparent KD of MS2 coat protein [2] [nM]	apparent KD of MS2 coat protein [3] [nM]	apparent KD of MS2 coat protein (input ligand: FMN 200 uM) [nM]	apparent KD of MS2 coat protein [4] [nM]	apparent KD of MS2 coat protein (input ligand: none) [nM]
AUAAUUAAUGCAGGAUAUGAUUAACAUGAGGAUCACCCAUGUGGUGUUGUGAGUAAGGAGAGUGAUCAGAAGGGCAUUUUUUUU [JMF's solution 33] (Eterna round: R96, puzzle: Same State NG 2)				666	298	343
AUAAUUUAUGCAGGAUAUGAUUAACAUGAGGAUCACCCAUGUGGUGUUGUGAGUAAGGAGAGUGAUCAGAAGGGCAUUUUUUUU [JMF's solution 70] (Eterna round: R96, puzzle: Same State NG 2)				734	391	400
AUAUAACAUGAGGAUCACCCAUGUCUCUAAAGUCGAGGAUAUGGGCAAAUAAUAUAAGAACCAGAAGGCGAAUUAU [SS1 Teenbexe 4] (puzzle: Same State 1)	143	34.1	79.3			
AUAUACUGGGUAGGAUAUCUAGGAUAUGGGAAAGACUAAGUCUGUAGGUCACCUAACCCAGAUGGAGAGAAGGACCCAACACAC [pwkr ssNG2 2FMN + F9.42] (Eterna round: R96, puzzle: Same State NG 2)				16.1	5.2	42.6
AUCAAAACAAGUUGCAGUGUUCGUCUUUCACAUGAGGAUCACCCAUGUAAUAGCCCAGCGGAAGCACUCGGGCCACC [Arzasola] (puzzle: Sensor for hsa-mir-208a)	26.8	28.1	31.2			
AUCAAAGCGUGAGGAUAUAUGGGAACACGAGUCGUAGAAGGUACGUCAAUACAUGAGGAUCACCCAUGUAAAGAGGAGAACCUC [Eternabot solution 33] (Eterna round: R96, puzzle: Same State NG 1)				60.1	32.9	45.2
AUCAAUCUAUCUGAGGAUAUCAUGAAAUAAACAUGAGGAUCACCCAUGUGCAGGAAAACUGCAUAUGAGAAGGCAGAUAGAUUGA [salish99_ss2_r3_019] (puzzle: Same State 2)	63.9	323	879			
AUCCCAUCGGGAGGAUAUGGAACCUUAUUGGUUCCAGAAGGUCCAACAUGAGGAUCACCCAUGUGGGAGUGGUCUAAUGACCAC [Fiskers NG1ss - 29] (Eterna round: R96, puzzle: Same State NG 1)				222	272	470
AUCCCAUCGGGAGGAUAUGGAACCUUAUUGGUUCUAGAAGGUCCAACAUGAGGAUCACCCAUGUGGGAGUGGUCUAAUGACCAC [SS NG10LRO01] (Eterna round: R96, puzzle: Same State NG 1)				190	208	414
AUGCAGCUACCACAGGAUAUACGUGGAUCGACAUGAGGAUCACCCAUGUAUAUCCUAAUAAUUGCGUAGAAGGGUGGUCAGCUGC [Tezaqutete] (puzzle: Same State 2)		696				
AUUAAACAUGAGGAUCACCCAUGUCAACAAAGUCGAGGAUAUGGGCAUAUUAUCUUAUAACCAGAAGGCGAAUAAU [salish99_ss1_r3_086] (puzzle: Same State 1)		155				
AUUAAUAAUCUAGGAUAUCACGUCGAAUAGACGUGAGAAGGAGAUCAUAACAUGAGGAUCACCCAUGUAUUACAUGAAGUUAAU [SSNG1/7-B1] (Eterna round: R96, puzzle: Same State NG 1)				27.5	29.9	34.8
AUUACUAACAUAGGAUAUCAUGCGAAAAUUGCGUGAGAAGGGUGGACGCUGUCAUUCACGGAAGACAUGAGGAUCACCCAUGUC [SameState NG1 #73] (Eterna round: R96, puzzle: Same State NG 1)				170	70.5	119
AUUAUACAUGAGGAUCACCCAUGUAAUUAAUUAAUUAAGAUCUAGGAUAUCAGCUCGAUUAGAGCUGAGAAGGAGAUCACAUGU [SSNG3/20-C2] (Eterna round: R96, puzzle: Same State NG 3)					21.2	
AUUAUUUAUGCAGGAUAUGAUUAACAUGAGGAUCACCCAUGUGGUGUUGUGAGUAAGGAGAGUGAUCAGAAGGGCAUUUUUUUC [JMF's solution 59] (Eterna round: R96, puzzle: Same State NG 2)				381	214	397
AUUAUUUCAUGAGGAUAUGGCACCUUAUUGGUGCCAGAAGGCAUGUCUAUUGACAUGAGGAUCACCCAUGUAUUAUAUUAUAUA [Eli NG1ss - 88] (Eterna round: R96, puzzle: Same State NG 1)				57.4	658	493
